Data as given in article PMC11381367.
pKd: −log10 of the molar value.

How the values were obtained:
RCC1 = assay: SPR; details: EMSA: 20 mM HEPES pH 7.6, 50 mM NaCl, 5% sucrose, 1 mM DTT, 2.5 mM MgCl2, 0.1 mg/ml BSA, on ice 1 h, SPR: 10 mM HEPES pH 7.4, 150 mM NaCl, 3 mM EDTA, 0.05% …
[1] = target: unmodified nucleosome (Xenopus laevis histones, Widom 601 DNA) (Xenopus laevis); assay: SPR; Biacore 8K; 5' biotinylated 185 bp nucleosome (about 200 RU) captured on streptavidin on a CM5 chip; RCC1 as analyte in 2-fold dilutions; HBS-EP+ (10 mM HEPES pH 7.4, 150 mM NaCl, 3 mM EDTA, 0.05% Tween-20); 1:1 steady-state affinity fit, two replicates
[2] = target: H2AK119ub nucleosome (dichloroacetone-linked ubiquitin on histone H2A-K119, Xenopus laevis histones) (Xenopus laevis | not stated) (UniProt P06897); assay: as above

RCC1, sequence (P18754 whole entry): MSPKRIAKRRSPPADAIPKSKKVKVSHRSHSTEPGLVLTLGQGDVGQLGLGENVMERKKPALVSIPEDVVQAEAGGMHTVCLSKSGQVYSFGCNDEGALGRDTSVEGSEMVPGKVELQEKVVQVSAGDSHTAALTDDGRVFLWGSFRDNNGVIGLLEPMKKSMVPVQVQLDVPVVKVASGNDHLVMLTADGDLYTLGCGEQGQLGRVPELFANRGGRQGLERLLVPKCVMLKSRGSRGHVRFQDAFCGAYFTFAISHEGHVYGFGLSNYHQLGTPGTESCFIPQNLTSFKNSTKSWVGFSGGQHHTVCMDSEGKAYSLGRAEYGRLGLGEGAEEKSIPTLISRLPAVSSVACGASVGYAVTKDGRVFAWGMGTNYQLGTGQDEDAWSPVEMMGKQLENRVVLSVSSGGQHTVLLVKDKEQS

For H2BK120ub nucleosome, 185 bp 601 (SPR), the pKd (RCC1; histone H2BK120ub) was < 5.00.
H2AK119ub nucleosome, 185 bp 601 (SPR) was tested, and the pKd (RCC1; histone H2AK119ub) was 6.27.
Work on unmodified nucleosome, 185 bp 601 (SPR) yielded a pKd (RCC1; unmodified histones) of 6.14.
Substance “RCC1 (from UniProt P18754 1-421) (natural protein)” has a pKd [1] of 6.14 and a pKd [2] of 6.27.
